In PMC5591422, “A Peptide-Fc Opsonin with Pan-Amyloid Reactivity” (Frontiers in Immunology, 2017) one finds Kd, signal deflection and EC50 data, which are given here for two molecules.

For experiment [1], the target named is rVλ6Wil amyloid-like fibrils. Briefly: SPR; BIAcore X, CM5 chip coated with rVλ6Wil fibrils (channel 1) and rVλ6Wil monomer (channel 2, subtracted as control); Fcp5 2 µg/mL or p5 0.2 µg/mL, 70 µL, 20 µL/min, 200 s binding and 200 s dissociation; two-state binding algorithm with conformational change. Background: SPR reads the build-up and loss of mass on a sensor chip optically.

Experiment [2] concerns the target Aβ(1–40) amyloid-like fibrils. Nature of the experiment: ELISA; EuLISA: amyloid-like fibrils (0.83 µM) adsorbed to microplate wells overnight at 37°C, blocked with 1% BSA in PBS; Fcp5, biotinylated-p5 or Fc2a titrated in PBS with 1% BSA and 0.05% tween 20; detected with biotinylated goat anti-mouse IgG and europium-streptavidin; estimated EC50.
In experiment [3] the target is rVλ6Wil amyloid-like fibrils. Described as above.
Experiment [4] deals with T1, IAPP amyloid-like fibrils (human, UniProt P10997 34-70).
T1 construct: islet amyloid polypeptide, the mature hormone; Fibrillar state; also called IAPP fibrils; islet amyloid polypeptide fibrils; source: bought: Anaspec (90% pure); fibrils prepared in sterile PBS
T1 peptide (looked up): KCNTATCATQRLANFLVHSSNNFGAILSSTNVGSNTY
Described as above. Conditions: both partners purified.

Ends that are not written are not given here.

B1: Fcp5 (peptide p5-murine IgG2a Fc fusion) (Fc fusion)
chain: VTPTVGGGYSKAQKAQAKQAKQAQKAQKAQAKQAKQVTPTV
modifications: not fully specified (C-terminus); also: fused to murine IgG2a Fc, glycosylated, site not given here
notes: 5-amino acid spacer flanking p5; peptide p5, non-natural 31-amino acid polybasic peptide; Disulfide-linked dimer by SDS-PAGE (theoretical monomer Mw 31,553); Cloned into the Nco I and Bgl II sites of pFUSE-mIgG2A-Fc in frame with the IL-2 secretory leader and the Fc; also called peptide p5-Fc fusion construct; source: HEK293T/17, transient transfection, purified from culture supernatant (protein …)
The term Kd denotes a measure of binding affinity in units of concentration. For orientation: EC50 means the concentration at which the effect is half-maximal. As to B1, the Kd in experiment [1] came out at 3 nM. In addition, in experiment [1], the signal deflection came out at 200 au. The EC50 in experiment [2] was 4 nM; in experiment [3] it was 1 nM; in experiment [4], about 15 nM.

B2: peptide p5 (peptide)
peptide: GGGYSKAQKAQAKQAKQAQKAQKAQAKQAKQ
modifications: also: biotinylated in EuLISA, site not given here, 125I-labelled in pulldown assays
notes: non-natural 31-amino acid peptide with eight lysines in a heptad repeat; also called biotinylated-p5; source: synthetic peptide (Anaspec), purified by RP-HPLC
For the molecule B2, the Kd in experiment [1] is 5 nM. The same molecule returned a signal deflection in experiment [1] of 100 au. The EC50 is 230 nM in experiment [2], 14 nM in experiment [3] and about 200 nM in experiment [4].
